# Data taken from paper PMC2756588.
# T1: Bzz1-2, P38822
# T1 sequence (P38822 568-633, looked up): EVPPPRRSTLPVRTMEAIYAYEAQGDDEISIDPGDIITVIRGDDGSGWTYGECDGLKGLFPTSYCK
# T2: Cyk3, Q07533
# T2 sequence (Q07533 1-83, looked up): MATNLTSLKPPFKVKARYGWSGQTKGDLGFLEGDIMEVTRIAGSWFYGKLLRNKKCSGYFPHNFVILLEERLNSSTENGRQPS
# T3: Pin3, Q06449
# T3 sequence (Q06449 53-122, looked up): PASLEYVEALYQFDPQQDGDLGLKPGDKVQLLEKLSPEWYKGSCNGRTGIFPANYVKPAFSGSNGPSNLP
# T4: Lsb3, P43603
# T4 sequence (P43603 385-451, looked up): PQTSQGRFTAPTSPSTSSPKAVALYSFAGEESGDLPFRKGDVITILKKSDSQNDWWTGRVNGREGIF
# T5: Bbc1, P47068
# T5 sequence (P47068 1-78, looked up): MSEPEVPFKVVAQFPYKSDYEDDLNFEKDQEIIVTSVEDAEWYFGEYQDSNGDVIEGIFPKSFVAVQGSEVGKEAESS
# T6: Boi1, P38041
# T6 sequence (P38041 1-86, looked up): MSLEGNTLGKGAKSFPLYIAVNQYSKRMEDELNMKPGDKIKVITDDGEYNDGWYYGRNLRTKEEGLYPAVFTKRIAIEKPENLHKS
# T7: Hof1, Q05080
# T7 sequence (Q05080 590-669, looked up): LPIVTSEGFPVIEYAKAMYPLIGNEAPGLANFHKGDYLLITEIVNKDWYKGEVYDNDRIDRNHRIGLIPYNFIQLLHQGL
# T8: Boi2, P39969
# T8 sequence (P39969 32-116, looked up): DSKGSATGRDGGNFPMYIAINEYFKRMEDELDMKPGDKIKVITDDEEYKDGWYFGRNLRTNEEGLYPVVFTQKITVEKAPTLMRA
# T9: Hse1, P38753
# T9 sequence (P38753 208-285, looked up): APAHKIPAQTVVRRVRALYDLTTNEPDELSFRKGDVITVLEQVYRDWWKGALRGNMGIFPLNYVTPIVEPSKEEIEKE
# T10: Fus1, P11710
# T10 sequence (P11710 432-512, looked up): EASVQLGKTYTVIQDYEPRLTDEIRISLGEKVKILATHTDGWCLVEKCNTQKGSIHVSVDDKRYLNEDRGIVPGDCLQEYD
# T11: Lsb4, P32793
# T11 sequence (P32793 402-468, looked up): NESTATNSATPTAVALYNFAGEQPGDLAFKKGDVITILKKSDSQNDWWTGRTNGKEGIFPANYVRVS
# T12: Bzz1-1, P38822
# T12 sequence (P38822 478-572, looked up): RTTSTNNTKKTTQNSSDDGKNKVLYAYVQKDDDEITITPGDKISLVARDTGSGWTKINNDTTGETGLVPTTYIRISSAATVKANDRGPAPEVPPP
# T13: Sla1-3, P32790
# T13 sequence (P32790 344-424, looked up): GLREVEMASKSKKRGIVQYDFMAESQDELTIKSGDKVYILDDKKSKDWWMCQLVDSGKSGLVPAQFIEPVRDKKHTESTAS
# T14: Sla1-2, P32790
# T14 sequence (P32790 60-140, looked up): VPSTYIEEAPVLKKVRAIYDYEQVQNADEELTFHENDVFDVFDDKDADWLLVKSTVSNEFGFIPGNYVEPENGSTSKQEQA
# T15: Abp1, P15891
# T15 sequence (P15891 535-592, looked up): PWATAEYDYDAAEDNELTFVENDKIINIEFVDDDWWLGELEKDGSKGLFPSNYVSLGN
# T16: Myo5, Q04439
# T16 sequence (Q04439 1072-1160, looked up): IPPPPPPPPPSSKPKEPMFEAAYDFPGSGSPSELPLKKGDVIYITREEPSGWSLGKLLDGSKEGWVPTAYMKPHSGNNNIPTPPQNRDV
# T17: Lsb1, P53281
# T17 sequence (P53281 45-122, looked up): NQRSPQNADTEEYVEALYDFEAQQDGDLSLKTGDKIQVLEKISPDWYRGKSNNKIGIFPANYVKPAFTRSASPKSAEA
# T18: Pex13, P80667
# T18 sequence (P80667 295-386, looked up): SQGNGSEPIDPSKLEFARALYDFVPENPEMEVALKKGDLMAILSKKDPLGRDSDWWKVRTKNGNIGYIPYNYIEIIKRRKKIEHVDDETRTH
# T19: Bud14, P27637
# T19 sequence (P27637 247-328, looked up): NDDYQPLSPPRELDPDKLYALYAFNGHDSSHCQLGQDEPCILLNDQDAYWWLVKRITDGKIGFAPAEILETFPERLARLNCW
# T20: Cdc25, P04821
# T20 sequence (P04821 50-136, looked up): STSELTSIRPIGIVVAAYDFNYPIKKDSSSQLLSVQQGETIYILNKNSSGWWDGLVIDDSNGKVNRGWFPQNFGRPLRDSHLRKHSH
# T21: Nbp2, Q12163
# T21 sequence (Q12163 103-180, looked up): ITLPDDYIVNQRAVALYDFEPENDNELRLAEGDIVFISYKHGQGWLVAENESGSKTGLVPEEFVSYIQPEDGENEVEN
# Tests used:
# Assay in all cases: SPOT array
# [1] = target: T1, Bzz1-2, P38822; conditions: median of control spots 4538
# [2] = target: Bem1-1, P29366; conditions: median of control spots 4282
# [3] = target: Myo3, P36006; conditions: median of control spots 468
# [4] = target: T2, Cyk3, Q07533; conditions: median of control spots 1451
# [5] = target: T3, Pin3, Q06449; conditions: median of control spots 2171
# [6] = target: T4, Lsb3, P43603; conditions: median of control spots 406
# [7] = target: T5, Bbc1, P47068; conditions: median of control spots 796
# [8] = target: T6, Boi1, P38041; conditions: median of control spots 1162
# [9] = target: Bem1-2, P29366; conditions: median of control spots 4347
# [10] = target: T7, Hof1, Q05080; conditions: median of control spots 4086
# [11] = target: T8, Boi2, P39969; conditions: median of control spots 1161
# [12] = target: T9, Hse1, P38753; conditions: median of control spots 1727
# [13] = target: T10, Fus1, P11710; conditions: median of control spots 1200
# [14] = target: T11, Lsb4, P32793; conditions: median of control spots 397
# [15] = target: GST; conditions: median of control spots 978
# [16] = target: T12, Bzz1-1, P38822; conditions: median of control spots 4446
# [17] = target: T13, Sla1-3, P32790; conditions: median of control spots 5475
# [18] = target: Sho1, P40073; conditions: median of control spots 1148
# [19] = target: T14, Sla1-2, P32790; conditions: median of control spots 712
# [20] = target: T15, Abp1, P15891; conditions: median of control spots 935
# [21] = target: Rvs167, P39743; conditions: median of control spots 2707
# [22] = target: T16, Myo5, Q04439; conditions: median of control spots 471
# [23] = target: T17, Lsb1, P53281; conditions: median of control spots 388
# [24] = target: T18, Pex13, P80667; conditions: median of control spots 1341
# [25] = target: T19, Bud14, P27637; conditions: median of control spots 956
# [26] = target: T20, Cdc25, P04821; conditions: median of control spots 969
# [27] = target: T21, Nbp2, Q12163; conditions: median of control spots 357
# Sequence of Sho1, P40073 (P40073 287-367): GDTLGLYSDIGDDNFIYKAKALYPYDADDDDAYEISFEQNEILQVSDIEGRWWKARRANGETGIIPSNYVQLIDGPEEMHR
# Sequence of Rvs167, P39743 (P39743 419-482): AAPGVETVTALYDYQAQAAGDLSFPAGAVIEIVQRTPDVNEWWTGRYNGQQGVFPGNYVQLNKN
# Sequence of Bem1-2, P29366 (P29366 139-227): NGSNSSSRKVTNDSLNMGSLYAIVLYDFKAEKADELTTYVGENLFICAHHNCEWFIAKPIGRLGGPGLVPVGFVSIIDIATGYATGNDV
# Sequence of Bem1-1, P29366 (P29366 55-141): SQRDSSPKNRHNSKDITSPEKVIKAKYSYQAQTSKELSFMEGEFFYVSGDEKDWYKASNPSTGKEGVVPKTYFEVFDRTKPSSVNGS
Binder,SPOT intensity [1],SPOT intensity [2],SPOT intensity [3],SPOT intensity [4],SPOT intensity [5],SPOT intensity [6],SPOT intensity [7],SPOT intensity [8],SPOT intensity [9],SPOT intensity [10],SPOT intensity [11],SPOT intensity [12],SPOT intensity [13],SPOT intensity [14],SPOT intensity [15],SPOT intensity [16],SPOT intensity [17],SPOT intensity [18],SPOT intensity [19],SPOT intensity [20],further results
GRSRLFPHSPLGRSS,9,0,0,2,1,0,12,4,5,14,1,9,16,0,0,0,8,21,1,34,SPOT intensity [21]: 0; SPOT intensity [22]: 0; SPOT intensity [23]: 0; SPOT intensity [24]: 4; SPOT intensity [25]: 25; SPOT intensity [26]: 34; SPOT intensity [27]: 4
RRASLFPRDPKRLRP,35,0,7,3,11,2,165,7,7,21,8,79,25,4,5,1,158,67,7,95,SPOT intensity [21]: 0; SPOT intensity [22]: 1; SPOT intensity [23]: 0; SPOT intensity [24]: 2; SPOT intensity [25]: 10; SPOT intensity [26]: 148; SPOT intensity [27]: 0
YHSRRHPLALGFKYV,0,0,1,3,13,0,2,0,10,0,0,0,5,0,0,0,9,7,0,0,SPOT intensity [21]: 0; SPOT intensity [22]: 0; SPOT intensity [23]: 0; SPOT intensity [24]: 4; SPOT intensity [25]: 4; SPOT intensity [26]: 6; SPOT intensity [27]: 0
HKVLRPFLLRRLKKD,0,0,0,3,4,0,333,1,1,0,0,11,52,0,0,1,30,26,0,34,SPOT intensity [21]: 0; SPOT intensity [22]: 0; SPOT intensity [23]: 0; SPOT intensity [24]: 0; SPOT intensity [25]: 21; SPOT intensity [26]: 67; SPOT intensity [27]: 13
